This is an account of results in US20190275084A1 (KYMAB, published 2019).

One may read the IC50 as the concentration that gives 50% inhibition.

The target in experiment [1] is T1, Recombinant Human OX40L (Leader sequence, Isoleucine Zipper and FLAG Sequence Included) (human).
T1 construct: It was used biotinylated in the HTRF assays and unlabelled in SPR and in the IL-2 release assay; also called hOX40L; recombinant hOX40L
In words: SPR (ProteOn XPR36), apparent affinity, antibody captured on anti-mouse IgG, hOX40L at 256 nM, 1:1 model, 25 C. Here is the method:
(§1) SPR analysis was carried out using the ProteOn™ XPR36 Array System (BioRad). Anti-mouse IgG (GE Healthcare BR-1008-38) was immobilised on a GLM biosensor surface using amine coupling, the surface was then blocked using 1 M ethanolamine. Test antibodies were captured on this surface and recombinant hOX40L (human and rhesus) were used at a single concentration of 256 nM, binding sensorgrams were double referenced using a buffer injection (i.e. 0 nM) to remove baseline drift and injection artefacts. Apparent affinities for the OX40L-antibody interaction were determined using the 1:1 model inherent to the ProteOn XPR36 analysis software. The assay was run using HBS-EP (Teknova) as running buffer and carried out at 25° C.

For experiment [2], the target named is T1, Recombinant Human OX40L (Leader …). In words: HTRF ligand/receptor neutralisation: antibody titrated against biotinylated hOX40L; the blocked ligand is OX40RFc-AF647; streptavidin cryptate detection. As to the method: Fully human purified IgG or other inhibitor were tested in order to establish the clone potency as measured by IC₅₀ values in the assay. Antibodies recombinantly expressed and purified were titrated by diluting in HTRF assay buffer and 5 μL of this titration transferred to a white 384 well low volume non-binding surface polystyrene plate (Greiner). Biotinylated OX40L was diluted in HTRF assay buffer to a working concentration of 2.4 nM and 5 μL added. […] Streptavidin cryptate (CISBIO) was diluted in HTRF assay buffer to working concentration of 1:100 and 5 μL added to all wells of the plate. Plates were covered, protected from light and incubated at room temperature for 3 hrs prior to reading time resolved fluorescence at 620 nm and 665 nm emission wavelengths using an EnVision plate reader (Perkin Elmer). Data were analysed by calculating delta F as described in Equation 4 and percentage of receptor for each sample according to Equation 5 or in some cases Equation 6. IC₅₀ values were determined using GraphPad Prism software by curve fitting using a four-parameter logistic equation (Equation 7) (FIG. 1).
In general terms: In TR-FRET formats the signal depends on donor and acceptor labels being close together.

The target is the same in experiment [3]. In words: HTRF receptor neutralisation: antibody titrated against biotinylated hOX40L and OX40RFc-AF647; mean +/- SEM of three experiments.
In experiment [4] the target is T2, Recombinant Rhesus OX40L (Leader Sequence, FLAG and Isoleucine zipper included) (Rhesus (Macaca mulatta)).
T2 construct: also called RhsOX40L; Rhesus monkey OX40L
In words: SPR (ProteOn XPR36), antibody captured, rhesus OX40L at 256 nM, 25 C; CNROR = cannot resolve off-rate. Here is the method: as §1

Experiment [5] has as its target T1, Recombinant Human OX40L (Leader …). The experiment can be described thus: cell-based or functional assay.

T1 sequence (chain, as listed by the source limits assumed): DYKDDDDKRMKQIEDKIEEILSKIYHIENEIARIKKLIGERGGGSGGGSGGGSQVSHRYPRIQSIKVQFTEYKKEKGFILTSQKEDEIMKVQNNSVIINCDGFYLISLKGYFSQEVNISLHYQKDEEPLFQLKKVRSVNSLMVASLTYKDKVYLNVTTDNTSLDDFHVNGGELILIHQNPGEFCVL
T2 sequence (chain, as listed by the source limits assumed): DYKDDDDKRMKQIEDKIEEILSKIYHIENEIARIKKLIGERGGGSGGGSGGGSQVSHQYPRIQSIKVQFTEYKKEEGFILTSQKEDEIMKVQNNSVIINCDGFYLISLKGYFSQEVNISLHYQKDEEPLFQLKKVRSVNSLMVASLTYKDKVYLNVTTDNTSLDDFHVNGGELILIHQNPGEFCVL

B1: 19H01 (hybridoma) (antibody, V domains shown)
VH: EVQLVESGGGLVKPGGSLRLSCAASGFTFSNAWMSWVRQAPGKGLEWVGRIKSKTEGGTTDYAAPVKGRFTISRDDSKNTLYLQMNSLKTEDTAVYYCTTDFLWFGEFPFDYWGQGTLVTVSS
VL: DIQMTQSPSSLSASVGDRVTITCRASQGISNYLAWYQQKPGKIPKLLIYAASTLQSGVPSRFSGSGSGTDFTLTISSLQPEDVATYYCQKYNSAPRTFGQGTKVEIK
notes: Purified from hybridoma supernatant as a murine/human chimeric antibody (human variable domains, mouse constant regions)
As to B1, the Kd in experiment [1] was 2.2 nM.

B2: 2D10 (human) (antibody, human IgG4 S228P, kappa, V domains shown)
VH: EVQLVESGGGLVQPGGSLRLSCAASGFTFSNYAMNWVRQAPGKGLEWVSTISGSGGATRYADSVKGRFTISRDNSRNTVYLQMNSLRVEDTAVFYCTKDRLIMATVRGPYYYGMDVWGQGTTVTVSS
VL: DIQMTQSPSSLSASVGDRVTITCRASQSISSYLNWYQQKPGKAPNLLIYAASSLQSGVPSRFSGSGSETDFTLTISSLQPEDFATYYCQQSHSVSFTFGPGTKVDIKR
notes: Recombinant fully human IgG4-PE/kappa; also called 02D10 IgG4-PE; 2D10 IgG4PE
As to B2, the “IC50 (read off the curve)” value in experiment [2] was ~800 pM. In addition, the 50% inhibitory concentration (IC50) in experiment [3] amounted to 0.75 nM. Besides, the binding result in experiment [4] is recorded as “binds”. In addition, the “Primary T-cell Assay IC50 nM (recombinant OX40L induced IL2 release from primary human T-cells)” value in experiment [5] was found to be 0.81 nM.

B3: 2D10 (hybridoma) (antibody, V domains shown)
VH: B2 VH
VL: DIQMTQSPSSLSASVGDRVTITCRASQSISSYLNWYQQKPGKAPNLLIYAASSLQSGVPSRFSGSGSETDFTLTISSLQPEDFATYYCQQSHSVSFTFGPGTKVDIK
notes: Purified from hybridoma supernatant as a murine/human chimeric antibody (human variable domains, mouse constant regions); also called 02D10
Consider B3, for which the binding result in experiment [4] is listed as “binds”.

B4: 10A07 (human) (antibody, V domains shown)
VH: EVQLVESGGVLVQPGGSLRLSCAASGFTFSSYIMTWVRQAPGKGLEWVSGISGSGGGTYYADSMKGRFTISRDNSKNTLYLQMNSLRVEDTAVYYCAKDRLGPITLVRGGYYYGMDVWGQGTTVTVSS
VL: DIQMTQSPSSLSASVGDRVTITCRASQSISDYLNWYQQKPGKAPKFLIYAASSLQSGVPSRFSGSGSGTDFTLTVSSLQPEDFATYYCQQSYSTPRTFGQGTRVEIKR
notes: also called 10A07 IgG4PE; 10A7 IgG4-PE
Regarding B4, the “IC50 (read off the curve)” value in experiment [2] was ~1000 pM. Also, the 50% inhibitory concentration (IC50) in experiment [3] is 1.2 nM. Moreover, the binding result in experiment [4] is recorded as “binds”. Moreover, the “Primary T-cell Assay IC50 nM (recombinant OX40L induced IL2 release from primary human T-cells)” value in experiment [5] was 0.83 nM.

B5: 10A07 (hybridoma) (antibody, V domains shown)
VH: B4 VH
VL: DIQMTQSPSSLSASVGDRVTITCRASQSISDYLNWYQQKPGKAPKFLIYAASSLQSGVPSRFSGSGSGTDFTLTVSSLQPEDFATYYCQQSYSTPRTFGQGTRVEIK
notes: Purified from hybridoma supernatant as a murine/human chimeric antibody (human variable domains, mouse constant regions); also called 10A7
On to B5, for which the binding result in experiment [4] is given as “binds”.

B6: 9H04 (hybridoma) (antibody, V domains shown)
VH: QVQLVESGGGLVKPGGSLRLSCAASRFTLSDYYMTWIRQAPGKGLEWVSYISSSGNTIYYADSVKGRFTISRDNAKNSLYLQMNSLRAEDTAVYYCARDLSGSYWDYYYGMDVWGQGTTVTVSS
VL: AIQLTQSPSSLSTSVGDRVTIACRASQGINNALAWYQQKPGKAPKLLIYDASSLESGVPSRFSGSGSGTDFTLTISSLQPEDFATYYCQQFNSYPRTFGQGTKVEIK
notes: Purified from hybridoma supernatant as a murine/human chimeric antibody (human variable domains, mouse constant regions); also called 09H04
On to B6, for which the Kd in experiment [1] is 5.3 nM.
